Assay results from patent publication US20120301878A1 (Memorial Sloan Kettering, published 2012).

Biological target: T1, FLAG-tagged p61 BRAF(V600E/R509H) (Homo sapiens, UniProt P15056 1-168; P15056 381-766)
T1 construct: domain: exons 1-3;domain: exons 9-18; Expressed in 293H cells; also called dimerization-deficient mutant; not shown: FLAG tag
Experiment: co-immunoprecipitation of Flag- and V5-tagged forms from 293H cell lysate (FIG. 2C)
Experimental: FIG. 2C. To compare levels of dimerization, 293H cells co-expressing FLAG tagged and c-terminal V5-tagged p61BRAF(V600E), full length BRAF(V600E) and the corresponding dimerization-deficient mutants p61 BRAF(V600E/R509H) and BRAF(V600E/R509H) were lysed followed by immunoprecipitation with FLAG antibody. Western blots with V5 or FLAG antibodies were performed as indicated.
The inventors of the present invention then determined whether deletion of exons 4-8 promoted dimerization of p61 BRAF(V600E). To determine levels of dimerization, the inventors ectopically co-expressed two constructs encoding the same protein; either p61 BRAF(V600E) or full-length BRAF(V600E) with different tags (Flag or V5).

binding result: no binding
B1: V5-tagged p61 BRAF(V600E/R509H) (enzyme, Homo sapiens, UniProt P15056 1-168, looked up)
chain: MAALSGGGGGGAEPGQALFNGDMEPEAGAGAGAAASSAADPAIPEEVWNIKQMIKLTQEHIEALLDKFGGEHNPPSIYLEAYEEYTSKLDALQQREQQLLESLGNGTDFSVSSSASMDTVTSSSSSSLSVLPSSLSVFQNPTDVARSNPKSPQKPIVRVFLPNKQRTVDLIRDQGFRGDGGSTTGLSATPPASLPGSLTNVKALQKSPGPQRERKSSSSSEDRNRMKTLGRRDSSDDWEIPDGQITVGQRIGSGSFGTVYKGKWHGDVAVKMLNVTAPTPQQLQAFKNEVGVLRKTHHVNILLFMGYSTKPQLAIVTQWCEGSSLYHHLHIIETKFEMIKLIDIARQTAQGMDYLHAKSIIHRDLKSNNIFLHEDLTVKIGDFGLATEKSRWSGSHQFEQLSGSILWMAPEVIRMQDKNPYSFQSDVYAFGIVLYELMTGQLPYSNINNRDQIIFMVGRGYLSPDLSKVRSNCPKAMKRLMAECLKKKRDERPLFPQILASIELLARSLPKIHRSASEPSLNRAGFQTEDFSLYACASPKTPIQAGGYGAFPVH
notes: domain: exons 1-3;domain: exons 9-18; Expressed in 293H cells; also called dimerization-deficient mutant; not shown: V5 tag at the C-terminus
